The data set has as its target T1, SarA (staphylococcal accessory regulator A), strain DB (Staphylococcus aureus) (UniProt Q2G2U9).
T1 sequence: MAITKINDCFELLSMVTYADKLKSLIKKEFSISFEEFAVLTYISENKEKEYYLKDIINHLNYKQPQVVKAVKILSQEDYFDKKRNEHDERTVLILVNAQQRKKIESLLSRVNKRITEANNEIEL
In words: EMSA. As to conditions: same buffer; 1 dimer per DNA; dG dissociation 12.1 kcal/mol.

“AC oligo (45 bp, footprint region of Chien and Cheung)” yielded a Kd of 1 nM.

In general, Kd refers to the free concentration of one partner at which half of the binding sites on the other are occupied at equilibrium, for simple one-to-one binding. A higher Kd goes with lower affinity.

Source of the values: patent US6699662.
